From publication PMC2139813 (The Journal of Cell Biology, 1997) come the findings set out here.

The experiment deals with human placental moesin (human, UniProt P26038 1-577). In words: far-Western, overlay or dot blot.

B1: human moesin N-ERMAD (amino acids 1–296) (domain or fragment, UniProt P26038 1-296, looked up)
chain: MPKTISVRVTTMDAELEFAIQPNTTGKQLFDQVVKTIGLREVWFFGLQYQDTKGFSTWLKLNKKVTAQDVRKESPLLFKFRAKFYPEDVSEELIQDITQRLFFLQVKEGILNDDIYCPPETAVLLASYAVQSKYGDFNKEVHKSGYLAGDKLLPQRVLEQHKLNKDQWEERIQVWHEEHRGMLREDAVLEYLKIAQDLEMYGVNYFSIKNKKGSELWLGVDALGLNIYEQNDRLTPKIGFPWSEIRNISFNDKKFVIKPIDKKAPDFVFYAPRLRINKRILALCMGNHELYMRRRK
modifications: biotin (only where used as probe in blot overlays; site not stated)
As for B1, the binding result is “binds”.
